According to publication PMC10397247:

Columns and labels:
Assay in all cases: two-hybrid library CCmax;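 note: natural log of median RNA to DNA barcode read ratio; higher means stronger binding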
4H2466-AA = biological target: T1, 4H2466-AA
T1 chain: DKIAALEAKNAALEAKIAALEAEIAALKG

4H249-AA = biological target: T2, 4H249-AA; conditions: mean of both orientations
T2 chain: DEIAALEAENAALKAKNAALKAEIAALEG

4H2505-AA = biological target: T3, 4H2505-AA; conditions: mean of both orientations
T3 chain: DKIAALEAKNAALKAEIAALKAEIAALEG

4H2575-AA = biological target: T4, 4H2575-AA; conditions: mean of both orientations
T4 chain: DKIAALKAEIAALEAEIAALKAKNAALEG

4H2592-AA = biological target: T5, 4H2592-AA; conditions: mean of both orientations
T5 chain: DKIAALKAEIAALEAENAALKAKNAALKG

4H2617-AA = biological target: T6, 4H2617-AA; conditions: mean of both orientations
T6 chain: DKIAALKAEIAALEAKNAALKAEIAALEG

4H2642-AA = biological target: T7, 4H2642-AA; conditions: mean of both orientations
T7 chain: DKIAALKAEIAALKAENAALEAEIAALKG

4H2729-AA = biological target: T8, 4H2729-AA; conditions: mean of both orientations
T8 chain: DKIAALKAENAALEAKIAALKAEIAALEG

4H2732-AA = biological target: T9, 4H2732-AA; conditions: mean of both orientations
T9 chain: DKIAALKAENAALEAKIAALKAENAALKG

4H2754-AA = biological target: T10, 4H2754-AA
T10 chain: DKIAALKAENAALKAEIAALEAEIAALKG

4H2774-AA = biological target: T11, 4H2774-AA; conditions: mean of both orientations
T11 chain: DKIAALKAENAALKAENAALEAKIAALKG

4H2837-AA = biological target: T12, 4H2837-AA; conditions: mean of both orientations
T12 chain: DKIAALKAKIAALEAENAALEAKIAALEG

4H2883-AA = biological target: T13, 4H2883-AA; conditions: mean of both orientations
T13 chain: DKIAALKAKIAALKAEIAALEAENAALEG

4H2931-AA = biological target: T14, 4H2931-AA; conditions: mean of both orientations
T14 chain: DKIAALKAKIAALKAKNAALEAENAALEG

4H2944-AA = biological target: T15, 4H2944-AA; conditions: mean of both orientations
T15 chain: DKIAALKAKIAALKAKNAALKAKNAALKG

4H2949-AA = biological target: T16, 4H2949-AA; conditions: mean of both orientations
T16 chain: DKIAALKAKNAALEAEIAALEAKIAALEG

4H3001-AA = biological target: T17, 4H3001-AA; conditions: mean of both orientations
T17 chain: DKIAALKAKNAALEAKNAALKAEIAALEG

4H3015-AA = biological target: T18, 4H3015-AA; conditions: mean of both orientations
T18 chain: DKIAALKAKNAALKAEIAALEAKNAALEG

4H3073-AA = biological target: T19, 4H3073-AA; conditions: mean of both orientations
T19 chain: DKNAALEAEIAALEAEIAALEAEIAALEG

4H3112-AA = biological target: T20, 4H3112-AA; conditions: mean of both orientations
T20 chain: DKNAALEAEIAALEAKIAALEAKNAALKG

4H317-AA = biological target: T21, 4H317-AA; conditions: mean of both orientations
T21 chain: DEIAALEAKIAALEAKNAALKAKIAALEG

4H3343-AA = biological target: T22, 4H3343-AA; conditions: mean of both orientations
T22 chain: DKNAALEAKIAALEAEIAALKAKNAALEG

4H335-AA = biological target: T23, 4H335-AA; conditions: mean of both orientations
T23 chain: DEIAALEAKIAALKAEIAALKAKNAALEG

4H342-AA = biological target: T24, 4H342-AA; conditions: mean of both orientations
T24 chain: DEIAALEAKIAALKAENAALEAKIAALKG

4H3427-AA = biological target: T25, 4H3427-AA; conditions: mean of both orientations
T25 chain: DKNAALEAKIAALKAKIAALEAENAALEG

4H3438-AA = biological target: T26, 4H3438-AA; conditions: mean of both orientations
T26 chain: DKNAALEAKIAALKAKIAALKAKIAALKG

4H347-AA = biological target: T27, 4H347-AA; conditions: mean of both orientations
T27 chain: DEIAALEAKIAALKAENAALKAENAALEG

4H3606-AA = biological target: T28, 4H3606-AA; conditions: mean of both orientations
T28 chain: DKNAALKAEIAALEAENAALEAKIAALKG

4H3627-AA = biological target: T29, 4H3627-AA
T29 chain: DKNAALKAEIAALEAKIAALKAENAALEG

4H3655-AA = biological target: T30, 4H3655-AA; conditions: mean of both orientations
T30 chain: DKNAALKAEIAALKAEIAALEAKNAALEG

4H3844-AA = biological target: T31, 4H3844-AA; conditions: mean of both orientations
T31 chain: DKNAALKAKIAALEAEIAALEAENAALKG

4H3921-AA = biological target: T32, 4H3921-AA
T32 chain: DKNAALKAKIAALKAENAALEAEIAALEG

4H406-AA = biological target: T33, 4H406-AA; conditions: mean of both orientations
T33 chain: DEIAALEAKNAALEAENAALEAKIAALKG

4H429-AA = biological target: T34, 4H429-AA; conditions: mean of both orientations
T34 chain: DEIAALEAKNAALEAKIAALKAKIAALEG

4H452-AA = biological target: T35, 4H452-AA; conditions: mean of both orientations
T35 chain: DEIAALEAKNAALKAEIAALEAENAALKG

4H454-AA = biological target: T36, 4H454-AA; conditions: mean of both orientations
T36 chain: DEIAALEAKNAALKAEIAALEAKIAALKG

4H48-AA = biological target: T37, 4H48-AA; conditions: mean of both orientations
T37 chain: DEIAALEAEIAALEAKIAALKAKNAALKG

4H56-AA = biological target: T38, 4H56-AA
T38 chain: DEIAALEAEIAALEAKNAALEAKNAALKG

4H566-AA = biological target: T39, 4H566-AA; conditions: mean of both orientations
T39 chain: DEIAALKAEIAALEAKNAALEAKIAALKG

4H605-AA = biological target: T40, 4H605-AA; conditions: mean of both orientations
T40 chain: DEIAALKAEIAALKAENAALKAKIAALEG

4H678-AA = biological target: T41, 4H678-AA; conditions: mean of both orientations
T41 chain: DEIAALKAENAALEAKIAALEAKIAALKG

4H717-AA = biological target: T42, 4H717-AA; conditions: mean of both orientations
T42 chain: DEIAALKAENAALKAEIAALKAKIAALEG

4H780-AA = biological target: T43, 4H780-AA; conditions: mean of both orientations
T43 chain: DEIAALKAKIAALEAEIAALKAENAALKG

4H794-AA = biological target: T44, 4H794-AA; conditions: mean of both orientations
T44 chain: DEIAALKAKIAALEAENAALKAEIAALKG

4H881-AA = biological target: T45, 4H881-AA; conditions: mean of both orientations
T45 chain: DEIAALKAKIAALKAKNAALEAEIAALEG

4H906-AA = biological target: T46, 4H906-AA; conditions: mean of both orientations
T46 chain: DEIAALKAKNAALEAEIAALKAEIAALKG

4H993-AA = biological target: T47, 4H993-AA; conditions: mean of both orientations
T47 chain: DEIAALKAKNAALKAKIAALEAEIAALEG

4H_APH = biological target: T48, 4H_APH
T48 chain: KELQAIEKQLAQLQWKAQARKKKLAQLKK

4H_BCR = biological target: T49, 4H_BCR; conditions: mean of both orientations
T49 chain: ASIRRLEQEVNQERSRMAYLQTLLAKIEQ

4H_GCN4 = biological target: 4H_GCN4
Sequence of 4H_GCN4 (chain, as listed by the source): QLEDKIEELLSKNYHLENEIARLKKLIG

GCN2_T = conditions: mean of both orientations

- interaction score (4H2466-AA): 1.31
- interaction score (4H249-AA): -1.42
- interaction score (4H2505-AA): -0.434
- interaction score (4H2575-AA): -1.2
- interaction score (4H2592-AA): -1.71
- interaction score (4H2617-AA): -1.65
- interaction score (4H2642-AA): -0.362
- interaction score (4H2729-AA): 0.493
- interaction score (4H2732-AA): -1.42
- interaction score (4H2754-AA): -0.538
- interaction score (4H2774-AA): -1.69
- interaction score (4H2837-AA): -1.28
- interaction score (4H2883-AA): -1.56
- interaction score (4H2931-AA): -1.81
- interaction score (4H2944-AA): -1.57
- interaction score (4H2949-AA): -0.713
- interaction score (4H3001-AA): -1.55
- interaction score (4H3015-AA): -1.65
- interaction score (4H3073-AA): -1.43
- interaction score (4H3112-AA): -1.92
- interaction score (4H317-AA): -1.82
- interaction score (4H3343-AA): -1.23
- interaction score (4H335-AA): -1.59
- interaction score (4H342-AA): -0.478
- interaction score (4H3427-AA): -1.39
- interaction score (4H3438-AA): -0.928
- interaction score (4H347-AA): -2.11
- interaction score (4H3606-AA): -1.47
- interaction score (4H3627-AA): -1.86
- interaction score (4H3655-AA): -1.35
- interaction score (4H3844-AA): -1.82
- interaction score (4H3921-AA): -1.23
- interaction score (4H406-AA): -1.25
- interaction score (4H429-AA): -0.101
- interaction score (4H452-AA): -1.37
- interaction score (4H454-AA): 0.993
- interaction score (4H48-AA): -1.11
- interaction score (4H56-AA): -2.04
- interaction score (4H566-AA): -1.51
- interaction score (4H605-AA): -1.38
- interaction score (4H678-AA): -0.158
- interaction score (4H717-AA): -1.06
- interaction score (4H780-AA): -1.2
- interaction score (4H794-AA): -1.43
- interaction score (4H881-AA): -2.04
- interaction score (4H906-AA): -1.22
- interaction score (4H993-AA): 0.55
- interaction score (4H_APH): -0.895
- interaction score (4H_BCR): -2.46
- interaction score (4H_GCN4): -1.67
- interaction score (GCN2_T): -1
B1: 4H2466-AA (peptide)
chain: DKIAALEAKNAALEAKIAALEAEIAALKG
